Columns and labels:
[1] = target: T1, extracellular part of recombinant human Lox-1 fused to polyhistidine tag (R&D Systems, cat nr. 1798-LX) (human, UniProt P78380 61-273); test: ELISA, rhLox-1 coated at 2 ug/ml, nanobody 1-1000 nM, detection with anti-Myc 9E10
[2] = target: T2, extracellular part of recombinant human SR-A1 fused to polyhistidine tag (R&D Systems Cat No 2708-MS) (human, UniProt P21757 77-451); test: ELISA, rhSRA-1 coated at 2 ug/ml, nanobody 1-1000 nM, detection with anti-Myc 9E10
T2 construct: range 77-451; Bought protein; that entry was therefore not used; also called rhSRA-1
T2 sequence: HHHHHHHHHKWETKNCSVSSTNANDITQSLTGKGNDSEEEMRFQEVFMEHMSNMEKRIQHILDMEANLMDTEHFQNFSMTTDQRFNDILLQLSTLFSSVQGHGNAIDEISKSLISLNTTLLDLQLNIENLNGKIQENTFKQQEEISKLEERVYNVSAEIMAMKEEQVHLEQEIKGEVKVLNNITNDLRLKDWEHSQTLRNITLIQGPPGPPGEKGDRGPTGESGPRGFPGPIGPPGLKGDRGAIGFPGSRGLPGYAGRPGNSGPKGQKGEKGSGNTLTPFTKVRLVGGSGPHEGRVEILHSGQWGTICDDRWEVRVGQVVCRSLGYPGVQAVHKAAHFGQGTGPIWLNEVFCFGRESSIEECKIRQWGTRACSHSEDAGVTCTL

[3] = target: T1, extracellular part of recombinant human …; test: ELISA, rhLox-1 coated at 2 ug/ml, nanobody detected with anti-Myc 9E10
[4] = target: T2, extracellular part of recombinant human …; test: ELISA, rhSRA-1 coated at 2 ug/ml, nanobody detected with anti-Myc 9E10
[5] = target: T3, extracellular part of recombinant human RAGE fused to human Fc (R&D Systems Cat No 1145-RG) (human, UniProt Q15109 23-342); test: immunoprecipitation on Talon beads, SDS-PAGE and blot with mouse anti-RAGE and mouse anti-myc
T3 construct: extracellular domain; Bought protein; they look like the limits of the IgG1 Fc part; also called rhRG; 1145-RAGE; not shown: human Fc region of human IgG1, at the C-terminus
Experimental: In order to test the binding of anti-RAGE clones further an Immunoprecipitation experiment was performed. In short, 100 ul of Talon slurry (50 ul beads) was washed carefully with lysis buffer (RIPA without EDTA) (20 mM tris pH7.4; 150 mM NaCl; 0.5% TritonX100; 0.1% SDS). 10 ug of VHHs was added to the beads in 200 ul of lysis buffer and incubate for 30 min hoh. The beads were washed once with lysis buffer and 1 ug of rhRG was added to the beads (100 ul) and incubated for 1 hour. The beads were spinned down and supernatant was removed. The beads were washed twice. Subsequently the beads were boiled for 5 min in sample buffer and the proteins were separated on a SDS PAGE by gel electrophoresis (FIG. 1).
The high molecular weight part was detected with mouse-anti-RAGE antibody (R&D systems) and the lower part was detected with mouse anti-myc.

T3 sequence (Q15109 23-342): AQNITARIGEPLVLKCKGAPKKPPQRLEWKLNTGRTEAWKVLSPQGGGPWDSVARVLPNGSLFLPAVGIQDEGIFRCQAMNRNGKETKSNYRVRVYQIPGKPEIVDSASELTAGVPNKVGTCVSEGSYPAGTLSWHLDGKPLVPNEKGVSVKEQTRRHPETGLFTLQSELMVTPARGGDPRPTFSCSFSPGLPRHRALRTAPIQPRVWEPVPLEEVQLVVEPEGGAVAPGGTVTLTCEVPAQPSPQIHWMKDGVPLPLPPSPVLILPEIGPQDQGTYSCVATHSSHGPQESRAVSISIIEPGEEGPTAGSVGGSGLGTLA

B1: Nanobody 98D8 (VHH)
VHH: EVQLVESGGGLVQPGGSLRLSCAASGSIFTINAMAWYRQAPGKQRELVAHLTNSGRTGYADSVKGRFTISSDNAKNTVYLQMNSLKPEDTAVYYCNRLGLHWSWGQGTQVTVSS
notes: Myc-tagged (detected with anti-Myc 9E10)
B1: binds [1].

B2: Nanobody 98E9 (VHH)
VHH: EVQLVESGGGLVQPGGSLRLSCAAYGSFFSIGTMGWYRQPPGNQRELVAVTYGLGSTNYAESVKGRFTISRDNAKNTVSLQMNSLKPEDTAVYYCYAEIDTDPRSGEWDYWGQGTQVTVSS
notes: as for B1
B2: binds [1].

B3: Nanobody 99C9 (VHH)
VHH: EVQLVESGGGLVQVGGSLRLSCAASGISIRTHAMGWYRQAPGKQRELVATITSVTSGGSLNYADSVKGRFTISRDNAKNTVYLQMNSLKPEDTAVYYCKLLGFDYRGQGTQVTVSS
notes: as for B1
B3: binds [2].

B4: Nanobody 105G11 (VHH)
VHH: EVQLVESGGGLVQAGGSLRLSCAASGRTFSRYAMAWFRHAPGKDREFVAAVSQSGLLTFYADSVKGRFTISRDNAKNTVYLQMNSLKPEDTAVYDCAADSRFPLVVPVAYENWGQGTQVTVSS
notes: as for B1
B4: binds [2].

B5: Nanobody 98A10 (VHH)
VHH: EVQLVESGGGLVQPGGSLRLSCLPSTSTSSLRTVGWYRQGPGKQRDLVAIMSAGTTRYADSVKGRFTISLDDAKNTVYLQMNSLKPEDTAVYICNGRPVFSNVDYWGQGTQVTVSS
notes: as for B1
B5: binds [1].

B6: Nanobody 98B9 (VHH)
VHH: EVQLVESGGGLVQAGGSLRLSCAASIGTFSAYHMGWFRQAPGKERELVAAISWSVSSTYYADSVKGRFTISRDNAKRTVSLQMDSLKPEDTAVYYCAARSGERYDYYKAQYEYWGQGTQVTVSS
notes: as for B1
B6: binds [1].

B7: Nanobody 105A8 (VHH)
VHH: EVQLVESGGNLVQAGGSLRLSCAASGFTFDDYVIGWFRQAPGKEREGVSCISSVEGSTYYADSVKGRFTISGDNAKNTVYLQMNSLKPEDTAVYYCAAGTWLDCSGYGSYDMDYWGKGTLVTVSS
notes: as for B1
B7: binds [1].

B8: Nanobody 98F12 (VHH)
VHH: EVQLVESGGGLVQAGGSLRLSCAASGFTFDDYAIGWFRQAPGKEREGVSCVSRDGGSTYYLDSVKGRFTISSDNAKNTVYLQMNSLKPEDAAVYYCAASRYDCSKYLIDYNYRGQGTQVTVSS
notes: as for B1
B8: binds [1].

B9: Nanobody 105B8 (VHH)
VHH: EVQLVESGGGLVQAGGSLRLSCAASGFTFDDYVIGWFRQAPGKEREGVSCISSSEGSTYYAESVKGRFTISSDNAKNTVYLQMNSLKPEDTAVYYCAASTWLDFVHGNEYDYRGQGTQVTVSS
notes: as for B1
B9: binds [1].

B10: Nanobody 99C8 (VHH)
VHH: EVQLVESGGGLVQPGGSLRLSCAASGSIGRFVAMGWYRQAPGKQRELVATITSITSGGRTNYADSVKGRFTISRDNAKNTVYLQMNSLKPEDTAVYYCNVVPYVNDYWGQGTQVTVSS
notes: Myc-tagged (detected with anti-Myc 9E10); also called 99C8 α SR-A1
B10: binds [2].

B11: Nanobody 49C5 (negative control, irrelevant nanobody against alphaFcgRI) (VHH)
VHH: EVQLVESGGGLVQAGGSLGLSCVASGRTFVSGGMGWFRQAPGKEREFVASIVWIGGRTYYADSVKGRFTISGDNAKSTVTLQMNSLKPEDTATYYCADGDLATGTYDYWGQGTQVTVSS
notes: Negative control; generation published in WO2008/074867; Myc-tagged (detected with 9E10)
B11: no binding (tested: 1-1000 nM) [3]; no binding (tested: 1-1000 nM) [4].

B12: Nanobody 105F7 (VHH)
VHH: EVQLVESGGGLVQAGGSLRLSCAASGRTFSNYAMGWFRQAPGKEREFVAAITWSGSSTYYADSVKGRFTISRDNAKNTVYLQMNSLKPEDTAVYYCAAAQRGRYYYLDRNVEYDYWGQGTQVTVSS
notes: as for B1
B12: binds [1].

B13: Nanobody 99D3 (VHH)
VHH: EVQLVESGGGLVQPGGSLRLSCAASGFTLGNYAIGWFRQAPGKEREGVSCVDRDGGSTYYLDSVTGRFTTSRDDAENTVYLQMNSLIPDDTAVYYCATRLYGCSGYGRDYADWGQGTQVTVSS
notes: as for B1
B13: no binding [5].
